Results on one protein are retold here after publication PMC2701924, “Molecular cloning and expression of a novel trehalose synthase gene from Enterobacter hormaechei” (Microbial Cell Factories, 2009).

Substrate in this data set: OC[C@H]1O[C@H](O[C@H]2O[C@H](CO)[C@@H](O)[C@H](O)[C@H]2O)[C@H](O)[C@@H](O)[C@@H]1O
As to the kind of experiment: initial rates, ion chromatography of products, Lineweaver-Burk. The settings on record: substrate 1-200 mM, pH and temperature not stated for kinetics (standard assay 50 mM phosphate pH 6, 37°C), reverse reaction. The format is biochemical, Enterobacter hormaechei.

B1: recombinant TreS (Enterobacter hormaechei trehalose synthase) (Enterobacter hormaechei) (protein)
chain: MAGWHTRAIIYQIDTALFYDLNGDGCGDIAGITAKLRYIRRMGATVIWITPFYLTPFLDEGYDVSDHLQVDPRFGKLNDIIAFIEQARELGMQVIIELLIQHTSDAHPWFQQARRNPQSPYRDYYLWSDTDDDDTPPMFPGVEKSIWTWDDEAGQYYRHMFYHHEPDLNLASPAVLKEVENIIIFWLKLGVSGFRLDAASHLTKQAGRGDEKRGLWILEHLRCLIGQRNPDAILLGEVDVEVEAYKDYFGQNDRLNLVLNFWLNKYFYVSLAEKSARPLRNAVKKMIVPPDSCCFANWLRNHDELDLEGIGKKAKQTVIDTFAPDEEMSVYQRGIRRRLAPMLNGDRKRLAFCHAVLFSLPGVPVMRYGDEIGMGDDLDLEERYAVRTPMQWAGSQGGGFSDADPETFVAPMIDHGPYRYQKINVADSLLHRNSLLHCIIDIANTRSEFPEIGVAPFRLINIDSDAVLGIYYETDTRSILTFVNFSDKPVNFTARGIRHATWTACLADKRYDDALVCGKTVALNLSGYGYRWFWTDRTALR
notes: pET30a(+) Nco I/Not I; 46 additional N-terminal residues incl; 6-His tag kept; about 65 kDa on SDS-PAGE; expressed in E. coli BL21(DE3) plysS, Ni-NTA
For B1, the Michaelis constant (Km) – broadly, the concentration of substrate that gives half-maximal velocity – came out at 75 mM.
